# Biological target: NaV1.5 CTD (Homo sapiens, UniProt Q14524)
# Test: ITC
# Sequence of NaV1.5 CTD (Q14524 1773-1940): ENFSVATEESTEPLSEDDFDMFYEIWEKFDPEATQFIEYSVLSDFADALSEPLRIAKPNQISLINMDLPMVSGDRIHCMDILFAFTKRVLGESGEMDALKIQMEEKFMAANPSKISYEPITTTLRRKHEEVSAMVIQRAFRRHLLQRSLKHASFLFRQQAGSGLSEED
binder,measurement,value
FGF13 (protein) MAAAIASSLIRQKRQAREREKSNACKCVSSPSKGKTSCDKNKLNVFSRVKLFGSKKRRRRRPEPQLKGIVTKLYSRQGYHLQLQADGTIDGTKDEDSTYTLFNLIPVGLRVVAIQGVQTKLYLAMNSEGYLYTSELFTPECKFKESVFENYYVTYSSMIYRQQQSGRGWYLGLNKEGEIMKGNHVKKNKPAAHFLPKPLKVAMYKEPSLHDLTEFSRSGSGTPTKSRSVSGVLNGGKSMSHNEST,Kd,123 nM
